Measurements taken from patent US5591427A, “Human Interleukin-3(Il-3) variants and their use to promote or antagonize IL-3-mediated processes” (Medvet Science Pty. Ltd., priority 1979, dated 1997).

Experiments:
[1] = test system: basophils; assay: Histamine release assay with basophils; format: cell-based, human; settings: FIG. 4
Procedure: This was carried out as previously described (Lopez et. al., 1990, J. Cell. Physiol., 145, 69-77). Briefly, basophils were obtained from the peripheral blood of normal individuals after dextran sedimentation and centrifugation over Lymphoprep. The percentage of basophils in these preparations varied between 0.2% and 10%. In 300 μl 2×10^4 cells were incubated with 2 μg/ml of purified human IgE. IgE-sensitisedcells were mixed with a goat IgG antihuman IgE (Cappel 0101-0061) and rhIL-3, in a final volume of 500 μl. After incubation for 60 min at 37° C., the cells were centrifuged and 350 μl aliquots removed and stored at -20° C. before assaying for histamine content. Histamine was assayed using a radioertzymatic method essentially as described (Shaff and Beavan, 1979, Anal. Biochem., 94, 425-430). Briefly, samples of 30 μl were diluted with an equal volume of water and mixed with a 30 μl solution comprising 27.5 μl 0.1 M sodium phosphate, pH 7.9, 1.5 μl rat kidney histamine-N-methyltransferase, and 1.0 μl (0.5 μCi)^3 H-methyl-S-adensoyl-L-methionine (Dupont Net 155, low SA). Tritium-labelled methyl-histamine was extracted into chloroform/ether, dried, and counted by scintillation spectrophotometry. […] as nanograms of histamine per milliliter by extrapolation to a standard curve constructed with 10, 5 and 1 ng/ml of histamine (SIGMA).

[2] = test system: bone marrow progenitor cells; assay: Colony assay: clonal proliferation and differentiation of bone marrow progenitor cells in semi-solid agar; format: cell-based
Procedure: (a) Colony assay: this assay measured the clonal proliferation and differentiation of bone marrow progenitor cells in semi-solid agar and was carried out as described (Lopez et. al., 1985, Blood 72, 1797-1804). Briefly, low density, macrophage-depleted bone marrow cells were cultured at a concentration of 0.5 to 1×10^5 /mL in Iscove's modified Dulbecco's medium (IMDM, GIBCI, Grant Island, N.Y.), containing 0.33% agar (Difco, Detroit), 25% FCS (Commonwealth Serum Laboratories, Parkville, Victoria, Australia), and 20 μmol/LK2-mercaptoethanol. Different dilutions of IL-3- containing COS cell supernatants were added to each plate. Plates were prepared in triplicate and scored after incubation at 37° C. in 5% CO2 in a humid atmosphere for 14 days. Clones containing 40 cells were scored as colonies.

[3] = test system: monocytes; assay: Stimulation of human monocyte adherence (51Cr adhesion assay); format: cell-based
Procedure: (a) Monocyte purification. Monocytes were purified from the peripheral blood of normal donors, obtained from the Adelaide Red Cross Transfusion Service, as previously described (Elliott et. al., 1990, J. Immunol., 145, 167-171). In brief, mononuclear cells were prepared by centrifugation of whole blood on lymphoprep cushions (Nyegaard, Oslo, Norway) and washed twice in HBSS, 0.02% EDTA, 0.1% heat inactivated FCS (Flow Laboratories, North Ryde, Australia) and monocytes were purified in a Beckman J-6M/E elutriator using the Sanderson chamber, a flow rate of 12 ml/min and a constant rotor speed of 2050 rpm. Cells remaining in the chamber after 30 min were collected, washed twice in HBSS, and used immediately. Using these methods, monocyte purity as assessed by morphology and nonspecific-esterase staining was always >90% and usually >95%. The major contaminating cell types were lymphocytes and granulocytes (principally basophils).
(b) Adhesion assay. Adhesion was measured by an isotopic method essentially as described (Elliott et. al., supra). In brief, purified monocytes (0.5 to 1×10^8) were resuspended in 1 ml RPMI 1640 with 0.1% FCS and antibiotics and incubated for 30 min at 37° C. with 500 μCi^51 Cr in the form of sodium chromate (Amersham International., Buckinghamshire, England). Cells were washed thrice in RPMI 1640 and resuspended in culture medium consisting of RPMI 1640, 10% FCS, antibiotics, and 0.2% sodium bicarbonate. For measurement of adhesion, 1 to 2.5×10^5 monocytes were aliquotted per well in 96-well microtitre plates (Nunc, Karnstrup, Denmark) together with stimuli or control medium to a total volume of […], and incubated for the indicated periods. […] At harvest, samples of supernatant were taken to assess spontaneous ^51 Cr release (usually <10% of cell-associated radioactivity), wells were washed three times with RPMI 1640 at 37° C., and residual adherent cells lysed in 10 mM Tris-hydrochloride, and 1% Nonident p40 detergent (Sigma). Lysates were transferred to tubes and counted in a Packard auto-gamma 5650. Percent adherence was calculated according to the formula: [formula]

[4] = test system: chronic myeloid leukaemic (CML) cells; assay: Proliferation of chronic myeloid leukaemic (CML) cells, [3H] thymidine incorporation; format: cell-based, human
Procedure: (b ) Proliferation of chronic myeloid leukaemic (CML) cells: Primarily CML cells from one patient were selected for their ability to incorporate [^3 H] thymidine in response to IL-3 as described (Lopez el. al., supra ). Briefly, CML cells were placed at 2×10^5 cells/mL fresh medium containing different concentrations of IL-3. Cells were incubated for 24 hours in a flat bottom 96-well NUNCLON plates (2×10^4 cells/well) before being pulsed with [^3 H] thymidine (0.5 μCi/well) for four more hours at 37° C. The cells were then harvested onto glass filters with a Titertek automated cell harvester and counted into a Beckman liquid scintillation counter. Data are expressed in cpm, and each point is the mean of six replicates.

[5] = target: T1, IL-3R α chain and β chain (Homo sapiens, UniProt P26951+P32927); assay: Competition for 125I-IL-3 binding to reconstituted IL-3 high affinity receptor (α and β chains) in COS cells; settings: FIG. 7
T1 construct: amplify the complete coding region of the IL-3R alpha chain; also to amplify the coding region of the IL-3R α chain; expressed in transfected cells; host or cells: COS cells (pCDM8 vector, electroporation)
T1 sequence (P26951 19-378): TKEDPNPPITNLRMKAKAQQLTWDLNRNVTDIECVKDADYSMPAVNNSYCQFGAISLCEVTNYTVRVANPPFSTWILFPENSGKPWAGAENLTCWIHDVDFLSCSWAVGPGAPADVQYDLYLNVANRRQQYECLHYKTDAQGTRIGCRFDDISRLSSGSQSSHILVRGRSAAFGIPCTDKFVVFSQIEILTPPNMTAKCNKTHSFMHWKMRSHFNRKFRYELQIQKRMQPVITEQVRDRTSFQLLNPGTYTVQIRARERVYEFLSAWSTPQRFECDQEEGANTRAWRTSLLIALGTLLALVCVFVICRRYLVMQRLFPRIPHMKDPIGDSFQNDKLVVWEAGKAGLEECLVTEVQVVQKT
T1 sequence (P32927 17-897): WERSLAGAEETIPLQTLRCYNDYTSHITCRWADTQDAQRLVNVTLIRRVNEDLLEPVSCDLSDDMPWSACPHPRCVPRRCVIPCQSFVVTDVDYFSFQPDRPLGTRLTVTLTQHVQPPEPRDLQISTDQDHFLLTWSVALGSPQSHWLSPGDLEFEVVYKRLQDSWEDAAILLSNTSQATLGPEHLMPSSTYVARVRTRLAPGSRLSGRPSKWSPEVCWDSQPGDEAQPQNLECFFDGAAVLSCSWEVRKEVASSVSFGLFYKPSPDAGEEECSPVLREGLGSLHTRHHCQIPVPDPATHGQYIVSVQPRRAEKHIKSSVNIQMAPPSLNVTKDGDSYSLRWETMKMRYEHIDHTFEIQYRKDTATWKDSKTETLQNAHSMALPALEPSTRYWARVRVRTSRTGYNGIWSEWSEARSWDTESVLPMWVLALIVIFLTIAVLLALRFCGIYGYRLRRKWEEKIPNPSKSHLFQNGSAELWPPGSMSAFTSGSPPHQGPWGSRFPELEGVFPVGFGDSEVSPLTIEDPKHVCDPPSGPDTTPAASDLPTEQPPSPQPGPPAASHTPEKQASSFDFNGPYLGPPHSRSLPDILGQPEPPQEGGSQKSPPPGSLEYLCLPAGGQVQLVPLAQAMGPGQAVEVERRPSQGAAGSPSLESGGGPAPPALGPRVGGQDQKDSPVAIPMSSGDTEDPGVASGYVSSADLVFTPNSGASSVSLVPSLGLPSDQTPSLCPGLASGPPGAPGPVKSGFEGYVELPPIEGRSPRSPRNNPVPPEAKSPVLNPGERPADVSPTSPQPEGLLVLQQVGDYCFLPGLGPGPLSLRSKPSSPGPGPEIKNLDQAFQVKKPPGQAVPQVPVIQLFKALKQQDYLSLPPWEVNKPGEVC
Description: PolyA+ RNA was isolated from the human cord blood cell line KMT2. Oligo dT primed double stranded cDNA was synthesised and used as template for PCR amplification. The PCR primers were designed to amplify the complete coding region of the IL-3R alpha chain and also to amplify the coding region of the […]. The PCR products were cloned into the vector pGEM-2 for sequence verification, and then into the eukaryotic expression vector, pCDM8. The […]-containing plasmid was transfected into COS cells by electroporation, either on its own or in conjunction with the […], and after two days the cells were used for binding studies.

[6] = concentration of IL-3 mutant giving 50% of biological activity compared to that of wild type IL-3

B1: M9: human IL-3 mutant, amino acid 116 (Lys) replaced by Val (protein, UniProt P08700 20-152, looked up, variant K116V)
Interleukin-3: APMTQTTPLKTSWVNCSNMIDEIITHLKQPPLPLLDFNNLNGEDQDILMENNLRRPNLEAFNRAVKSLQNASAIESILKNLLPCLPLATAAPTRHPIHIKDGDWNEFRRKLTFYLVTLENAQAQQTTLSLAIF
For B1, the “histamine release from basophils” value [1] was “increased histamine release”, the “number of day 14 colonies” value [2] was “increase in the number of day 14 colonies” and the “Relative biological activity, PROLIFERATION COLONIES” value ([2]; concentration of IL-3 mutant giving 50% of biological activity compared to that of wild type IL-3, mean ± SD) was 420. For the same molecule, the “stimulation of monocyte adherence” value ([3]; FIG. 3) was “more potent than the wild type IL-3”, the “Relative biological activity, MONOCYTE” value [3, 6] was 312 and the “stimulation of CML cell proliferation” value ([4]; FIG. 2, FIG. 8) was “more potent than the wild type IL-3”. For the same molecule, the “Relative biological activity, PROLIFERATION CML” value [4, 6] was 328.

B2: M47: human IL-3 mutant, glutamic acid at position 22 replaced by arginine (protein, UniProt P08700 20-152, looked up, variant E22R)
Interleukin-3: APMTQTTPLKTSWVNCSNMIDRIITHLKQPPLPLLDFNNLNGEDQDILMENNLRRPNLEAFNRAVKSLQNASAIESILKNLLPCLPLATAAPTRHPIHIKDGDWNEFRRKLTFYLKTLENAQAQQTTLSLAIF
With B2 the “binding to cotransfected α and β chains” value [5] was “less binding”.
